According to patent publication US12458818B2, “Anti-trophoblast cell surface antigen 2 (TROP2) antibodies and antibody drug conjugates comprising same” (CSPC MEGALITH BIOPHARMACEUTICAL CO., LTD., priority 2019, dated 2025):
Where “and” joins values, the source holds several entries; their conditions need not be identical. Identical values can stand only once.

Legend:
[1] = test system: human MDA-MB-468 breast adenocarcinoma tumor xenografts; test: MDA-MB-468 xenograft efficacy in NOD/SCID mice (Example 3); assay type: in vivo, mouse; conditions: single dose on Day 0; for T/C (%) / TGI (%): Day 42
Protocol: The efficacies of two anti-TROP2-MMAE antibody drug conjugates, DP002-HC1LC5-ADC (DAR ˜2) and DP002-HC4LC5-ADC (DAR ˜1.6-2.3), in inhibiting tumor growth in mice bearing human MDA-MB-468 breast adenocarcinoma tumor xenografts were tested. DP002-HC1LC5-ADC comprises an anti-TROP antibody that comprises HC 1 (SEQ ID NO: 52) and LC5 (SEQ ID NO: 62); DP002-HC4LC5-ADC comprises an anti-TROP antibody that comprises HC 4 (SEQ ID NO: 44) and LC5 (SEQ ID NO: 62). Briefly, 48 NOD/SCID mice (female, 6-8 weeks of age) were implanted with 0.1 ml MDA-MB-468 cells (lx 10^7 cell/ml). When the tumors sizes reached above 181 mm^3 (34 days after tumor inoculation), the mice were sorted randomly into 7 groups (6 mice/group) and treated according to the schedule provided in Table 10 below: […]

[2] = test system: xenografted MDA-MB-468 human breast adenocarcinoma tumors; test: MDA-MB-468 xenograft efficacy in female nude mice (Example 4); assay type: in vivo, mouse
Protocol: The anti-tumor activity of DP002-HC4LC5-ADC was evaluated as a single agent in female nude mice bearing xenografted MDA-MB-468 human breast adenocarcinoma tumors.
Each mouse was inoculated with 5×10^6 MDA-MB-468 tumor cells (in 0.1 mL, 1:1 with Matrigel) at the right flank by subcutaneous administration under sterile conditions. When the tumors reached a volume of ˜150 mm^3, mice were randomized into one of 7 treatment groups (6 mice per group), as outlined in Table 12, and treatments began. All doses of DP002-HC4LC5-ADC were administered by intravenous injection via tail vein injection.
Tumor size and animal body weight were measured twice per week. Clinical signs were recorded daily. Tumors were measured using a caliper in two dimensions (i.e., length (a) and width (b)), and tumor volumes were estimated from measurements of the two diameters of the individual tumors as follows: Tumor Volume (mm^3)=(a×b^2)/2.
Average tumor growth curves for each treatment group were plotted with the observation time on the X-axis, and corresponding tumor volume (geometric mean) on the Y-axis. A two-tailed t-test was used to analyze the statistical significance of any differences between the treatment groups and the control group. Tumor Growth Inhibition (TGI) was calculated after each tumor volume measurement according to the formula: % TGI=(TVcn−TVtn)/TVcn×100, where TVtn and TVcn are the mean tumor Volume of treated and control groups, respectively. Body weight change (CBW %) was calculated after each body weight measurement according to the formula: CBW %=(BWn−BW0)/BW0×100, where BWn is the body weight at day n and BW0 is the body weight at day 0 respectively.

[3] = 1 mg/kg IV Days 0, 7, 14, 21, n = 6
[4] = 1 mg/kg IV once on Day 0, n = 6 unless specified
[5] = 2 mg/kg IV Day 0 + 1 mg/kg IV Days 7, 14
[6] = 2 mg/kg IV Day 0 + 1 mg/kg IV Days 7, 14, n = 6 unless specified
[7] = 2 mg/kg IV once on Day 0, n = 6 unless specified

B1: DP002-HC4LC5-ADC: anti-TROP2-MMAE antibody drug conjugate (DAR ~1.6-2.3) of antibody with HC4 and LC5 (SEQ ID NO: 62) (conjugate)
VH: EVQLVQSGAEVKKPGESLKISCKGSGYTFTDYSINWVRQMPGKGLEWMGVISTYYGDASYNQKFKGQVTISADKSISTAYLQWSSLKASDTAMYYCARYGDGYNQFDYWGQGTLVTVSS
light: DIQMTQSPSSLSASVGDRVTITCRVSESVDSYGNNFMHWYQQKPGKAPKLLIYRASNLESGVPSRFSGSGSGTDFTFTISSLQPEDIATYYCQQSYEDPYTFGGGTKLEIKRTVAAPSVFIFPPSDEQLKSGTASVVCLLNNFYPREAKVQWKVDNALQSGNSQESVTEQDSKDSTYSLSSTLTLSKADYEKHKVYACEVTHQGLSSPVTKSFNRGEC
modifications: MMAE conjugate
- Tumor Size (mm^3) at Day 42, mean ± SEM ([1]; 1 mg/kg intravenous): 620 ± 61 mm^3
- Tumor Size (mm^3) at Day 42, mean ± SEM ([1]; 4 mg/kg intravenous): 4 ± 2 mm^3
- average tumor volume on Day 56 ([1]; 4 mg/kg intravenous): 3 mm^3
- T/C (%) ([1]; 1 mg/kg intravenous): 82%
- TGI (%) ([1]; 1 mg/kg intravenous): 18%
- T/C (%) ([1]; 4 mg/kg intravenous): 0%
- TGI (%) ([1]; 4 mg/kg intravenous): 100%
- % TGI Day 70 ([2]; 1 mg/kg IV Days 0, 7, 14, 21): 85.88%
- % of mice with tumor regression at the end of the study ([2]; 1 mg/kg IV Days 0, 7, 14, 21): 30%
- Tumor Volume (mm^3, Mean ± SEM) Day 70 ([2]; 1 mg/kg IV Days 0, 7, 14, 21): 191.51 mm^3 and 192.51 ± 91.38*** mm^3
- Tumor Weight (g, Mean ± SEM) Day 84 ([2]; 1 mg/kg IV Days 0, 7, 14, 21): 0.421 ± 0.218 g
- Number of mice demonstrating full tumor regression at Week 4 following first dose [2, 3]: 1
- Number of mice demonstrating full tumor regression at Week 5 following first dose [2, 3]: 1
- Number of mice demonstrating full tumor regression at Week 6 following first dose [2, 3]: 1
- Number of mice demonstrating full tumor regression at Week 7 following first dose [2, 3]: 2
- Number of mice demonstrating full tumor regression at Week 8 following first dose [2, 3]: 2
- Number of mice demonstrating full tumor regression at Week 9 following first dose [2, 3]: 2
- Number of mice demonstrating full tumor regression at Week 10 following first dose [2, 3]: 2
- Number of mice demonstrating full tumor regression at Week 11 following first dose [2, 3]: 2/6 and 2
- Number of mice demonstrating full tumor regression at Week 12 following first dose [2, 3]: 2
- % TGI Day 70 ([2]; 1 mg/kg IV once on Day 0): 62.16%
- Tumor Volume (mm^3, Mean ± SEM) Day 70 ([2]; 1 mg/kg IV once on Day 0): 515.77 mm^3 and 515.77 ± 127.38*** mm^3
- Tumor Weight (g, Mean ± SEM) Day 84 ([2]; 1 mg/kg IV once on Day 0): 0.658 ± 0.165 g
- Tumor Weight (g, Mean ± SEM) Day 77 ([2]; 1 mg/kg IV once on Day 0, animals euthanized Day 77): 0.972 ± 0.165 g
- Number of mice demonstrating full tumor regression at Week 4 following first dose [2, 4]: 0
- Number of mice demonstrating full tumor regression at Week 5 following first dose [2, 4]: 0
- Number of mice demonstrating full tumor regression at Week 6 following first dose [2, 4]: 0
- Number of mice demonstrating full tumor regression at Week 7 following first dose [2, 4]: 0
- Number of mice demonstrating full tumor regression at Week 8 following first dose [2, 4]: 0
- Number of mice demonstrating full tumor regression at Week 9 following first dose [2, 4]: 0
- Number of mice demonstrating full tumor regression at Week 10 following first dose [2, 4]: 0
- Number of mice demonstrating full tumor regression at Week 11 following first dose [2, 4]: 0
- Number of mice demonstrating full tumor regression at Week 12 following first dose [2, 4]: 0 (n = 4)
- % TGI Day 70 [2, 5]: 87.61%
- % of mice with tumor regression at the end of the study [2, 5]: 100%
- Tumor Volume (mm^3, Mean ± SEM) Day 70 [2, 5]: 168.94 mm^3 and 168.94 ± 168.94*** mm^3
- Tumor Weight (g, Mean ± SEM) Day 84 [2, 5]: 0.000 ± 0.000 g
- Tumor Weight (g, Mean ± SEM) Day 77 ([2]; 2 mg/kg IV Day 0 + 1 mg/kg IV Days 7, 14, animal euthanized Day 77): 0.749 g
- Number of mice demonstrating full tumor regression at Week 4 following first dose [2, 6]: 5
- Number of mice demonstrating full tumor regression at Week 5 following first dose [2, 6]: 5
- Number of mice demonstrating full tumor regression at Week 6 following first dose [2, 6]: 5
- Number of mice demonstrating full tumor regression at Week 7 following first dose [2, 6]: 5
- Number of mice demonstrating full tumor regression at Week 8 following first dose [2, 6]: 5
- Number of mice demonstrating full tumor regression at Week 9 following first dose [2, 6]: 5
- Number of mice demonstrating full tumor regression at Week 10 following first dose [2, 6]: 5
- Number of mice demonstrating full tumor regression at Week 11 following first dose [2, 6]: 5/6 and 5
- Number of mice demonstrating full tumor regression at Week 12 following first dose [2, 6]: 5 (n = 5)
- % TGI Day 70 ([2]; 2 mg/kg IV once on Day 0): 89.74%
- % of mice with tumor regression at the end of the study ([2]; 2 mg/kg IV once on Day 0): 20%
- Tumor Volume (mm^3, Mean ± SEM) Day 70 ([2]; 2 mg/kg IV once on Day 0): 139.85 mm^3 and 139.85 ± 99.80*** mm^3
- Tumor Weight (g, Mean ± SEM) Day 84 ([2]; 2 mg/kg IV once on Day 0): 0.089 ± 0.048 g
- Tumor Weight (g, Mean ± SEM) Day 77 ([2]; 2 mg/kg IV once on Day 0, animal euthanized Day 77): 1.004 g
- Number of mice demonstrating full tumor regression at Week 4 following first dose [2, 7]: 2
- Number of mice demonstrating full tumor regression at Week 5 following first dose [2, 7]: 2
- Number of mice demonstrating full tumor regression at Week 6 following first dose [2, 7]: 2
- Number of mice demonstrating full tumor regression at Week 7 following first dose [2, 7]: 2
